What was measured:
SY5Y cells = assay: Aβ production by SY5Y cells; assay type: cell-based, human; details: total Aβ in conditioned media, 5 h; concentration (TOFA 200 μM, cerulenin 200 μM, etomoxir 40 μM, peptide YY (3-36) 25 μM, CNTF 25 μM, leptin 400 ng/ml); mean ± SEM; NS = non-significant
Text: Cell cultures, Treatments, Antibodies and Immunoassays. SY5Y cells (human neuroblastoma) were maintained in culture as described (Johnsingh et al., FEBS Lett. 465:53-8 (2000)). Primary neural cultures were obtained from ε16 rat embryonic cortex, as described (Shimoda et al., 1992. Brain Res. 586:319-31 (1992)). These were either grown as mixed cultures (Johnsingh et al., FEBS Lett. 465:53-8 (2000)) or grown under conditions that favor the isolation and proliferation of astrocytes (Takeshima et al., J Neurosci. 14:4769-79 (1994)).
SY5Y and hyg-sa134-Neuro2a cells were treated at 80% confluency (see below). Primary neural cultures from mouse embryos were allowed to grow for 6-12 days following plating and prior to viral infection and treatments.
About 100 ng/ml or about 400 ng/ml leptin (Harbor-UCLA, CA), was added in cell culture medium for 2 or 5 h. Cells were approximately 80% confluent at the time of treatment. Peptide YY (3-36) (Phoenix Pharmaceuticals, Inc., CA), and CNTF (Sigma-Aldrich, Mo.) were added at about 25 μM or 150 μM for the same incubation periods. TOFA, etomoxir (Research Biochemicals International, MA) and cerulenin (Sigma-Aldrich, Mo.) were used as described below.
For the determination of Aβ peptide several methodologies also were used. SY5Y cells in culture were metabolically labeled with ^35S-[Met] as described (Figueiredo-Pereira et al. J Neurochem. 72:1417-22 (1999)), followed by immunoprecipitation, resolution of the immunoprecipitates on SDS-PAGE, autoradiography, and densitometric analysis of the autoradiogram. Neuro2a cells were stably transfected with hyg-sa134 (K. Sambamurti, S. Carolina Medical Center, SC) and Aβ40 (SEQ ID NO: 4) plus Aβ42 (SEQ ID NO: 5) plus Aβ43 (SEQ ID NO: 6) (Total Aβ) in the medium then was quantified by sandwich ELISAs developed with 4G8 and 6 ε10 monoclonal antibodies (Signet, Mass.) as described (Figueiredo-Pereira et al., J Neurochem. 72:1417-22 (1999)). Commercially available ELISA kits (KMI Diagnostics, MN) were used for the separate determination of Aβ40 (SEQ ID NO:4) and Aβ42/43 (SEQ ID NO:5/SEQ ID NO:6) in formic acid extracts of mice brains. Flotillin was detected using monoclonal anti-flotillin-1 antibodies (BD Biosciences, CA). Actin was detected using monoclonal anti-actin antibodies (Research Diagnostics, Inc, NJ).
Human (SYSY) or mouse neuroblastoma cell-lines (Neuro2a) commonly are used to study amyloid β metabolism in vitro. Neuro2a cells are stably transfected with hyg-sa134 (SEQ ID NO: 11), a plasmid driving the expression of a recombinant fusion protein containing the human C-terminal fragment of APP of about 134 amino acids, CAPP134 (SEQ ID NO: 10). Here, 5Y5Y or Neuro2a cultures were treated for 2 or 5 h with about 100 ng/ml or about 400 ng/ml leptin (FIG. 4a, 4b). Similarly, primary neurons from embryonic rat brain, infected with an adenovirus to direct the expression of CAPP134 (SEQ ID NO:10) also were treated according to the same regimen.

β-secretase = assay: C99/C83 accumulation in SY5Y cells in presence of γ-secretase inhibitors (Western blot); assay type: cell-based, human; details: 5 h

B1: Leptin: peptide hormone controlling adaptive metabolic mechanisms to energy availability; leptin (Harbor-UCLA) in vitro, recombinant murine leptin in mice (protein, UniProt P41160 22-167, looked up)
Leptin: VPIQKVQDDTKTLIKTIVTRINDISHTQSVSAKQRVTGLDFIPGLHPILSLSKMDQTLAVYQQVLTSLPSQNVLQIANDLENLRDLLHLLAFSKSCSLPQTSGLQKPESLDGVLEASLYSTEVVALSRLQGSLQDILQQLDVSPEC
- SY5Y Aβ (% control) (SY5Y cells): 38 ± 7 % control
- cholesterol-induced increase in C99 (β-secretase; 10 μM cholesterol in the presence of 400 ng/ml leptin): abolished
- C99 level (β-secretase; with L-685,458 (100 nM) or Z-VL-CHO (100 μM), 10 μM cholesterol or 400 ng/ml leptin alone): also was observed in the absence of cholesterol
